Assay results reported in US20120220489A1.

Tests used:
[1] = molecular target: ERK1 (p42) active (phospho), human, Active Motif 31 152 (human) (UniProt P27361); assay: RPA, competition: +free H3 peptide 10 nM
[2] = molecular target: ERK1 (p44) active (GST tagged), human, Invitrogen PV 3311 (human) (UniProt P27361); assay: RPA, competition: +free H3 peptide 10 nM
[3] = molecular target: ERK1 (p44) inactive (GST tagged), human, Invitrogen PV 3312 (human) (UniProt P27361); assay: RPA, competition: +free H3 peptide 10 nM
[4] = molecular target: ERK1 (p44), human, Cell Signaling Technology 7416 (human) (UniProt P27361); assay: RPA, competition: +free H3 peptide 10 nM
[5] = molecular target: ERK2 (p42), human, Biosource PHO 0104 (human) (UniProt P28482); assay: RPA, competition: +free H3 peptide 10 nM
[6] = molecular target: Erk1-BSA 2.7x peptide-protein conjugate (human; bovine); assay: RPA, competition: +free H3 peptide 10 nM
[7] = molecular target: Histone H3 recombinant protein, calf, Roche 11 034 758 001 (calf) (UniProt P68432); assay: RPA, competition: +free H3 peptide 10 nM
[8] = molecular target: Histone H3 recombinant protein, human, Upstate 14-494 (human) (UniProt P68431); assay: RPA, competition: +free H3 peptide 10 nM
[9] = molecular target: Histone H3-BSA 2.7x peptide-protein conjugate (bovine); assay: RPA, competition: +free H3 peptide 10 nM
[10] = molecular target: pErk1/2-BSA 2.7x peptide-protein conjugate (human; bovine); assay: RPA, competition: +free H3 peptide 10 nM
[11] = molecular target: pRb recombinant protein, human, Active Motif 31 128 (human) (UniProt P06400); assay: RPA, competition: +free H3 peptide 10 nM
[12] = molecular target: pRb-BSA 1x peptide-protein conjugate (bovine); assay: RPA, competition: +free H3 peptide 10 nM
[13] = molecular target: ERK1 (p44) active (GST tagged), human, Invitrogen PV 3311 (human) (UniProt P27361); assay: RPA, competition: +free H3 peptide 1000 nM
[14] = molecular target: ERK1 (p44), human, Cell Signaling Technology 7416 (human) (UniProt P27361); assay: RPA, competition: +free H3 peptide 1000 nM
[15] = molecular target: ERK2 (p42), human, Biosource PHO 0104 (human) (UniProt P28482); assay: RPA, competition: +free H3 peptide 1000 nM
[16] = molecular target: Erk1-BSA 2.7x peptide-protein conjugate (human; bovine); assay: RPA, competition: +free H3 peptide 1000 nM
[17] = molecular target: Histone H3 recombinant protein, calf, Roche 11 034 758 001 (calf) (UniProt P68432); assay: RPA, competition: +free H3 peptide 1000 nM
[18] = molecular target: pErk1/2-BSA 2.7x peptide-protein conjugate (human; bovine); assay: RPA, competition: +free H3 peptide 1000 nM
[19] = molecular target: pRb recombinant protein, human, Active Motif 31 128 (human) (UniProt P06400); assay: RPA, competition: +free H3 peptide 1000 nM
[20] = molecular target: ERK1 (p42) active (phospho), human, Active Motif 31 152 (human) (UniProt P27361); assay: RPA, competition: +free Erk1 peptide 1000 nM
[21] = molecular target: ERK1 (p44) active (GST tagged), human, Invitrogen PV 3311 (human) (UniProt P27361); assay: RPA, competition: +free Erk1 peptide 1000 nM
[22] = molecular target: ERK1 (p44) inactive (GST tagged), human, Invitrogen PV 3312 (human) (UniProt P27361); assay: RPA, competition: +free Erk1 peptide 1000 nM
[23] = molecular target: ERK1 (p44), human, Cell Signaling Technology 7416 (human) (UniProt P27361); assay: RPA, competition: +free Erk1 peptide 1000 nM
[24] = molecular target: ERK2 (p42), human, Biosource PHO 0104 (human) (UniProt P28482); assay: RPA, competition: +free Erk1 peptide 1000 nM
[25] = molecular target: Erk1-BSA 2.7x peptide-protein conjugate (human; bovine); assay: RPA, competition: +free Erk1 peptide 1000 nM
[26] = molecular target: Histone H3 recombinant protein, calf, Roche 11 034 758 001 (calf) (UniProt P68432); assay: RPA, competition: +free Erk1 peptide 1000 nM
[27] = molecular target: Histone H3 recombinant protein, human, Upstate 14-494 (human) (UniProt P68431); assay: RPA, competition: +free Erk1 peptide 1000 nM
[28] = molecular target: Histone H3-BSA 2.7x peptide-protein conjugate (bovine); assay: RPA, competition: +free Erk1 peptide 1000 nM
[29] = molecular target: pErk1/2-BSA 2.7x peptide-protein conjugate (human; bovine); assay: RPA, competition: +free Erk1 peptide 1000 nM
[30] = molecular target: pRb recombinant protein, human, Active Motif 31 128 (human) (UniProt P06400); assay: RPA, competition: +free Erk1 peptide 1000 nM
[31] = molecular target: pRb-BSA 1x peptide-protein conjugate (bovine); assay: RPA, competition: +free Erk1 peptide 1000 nM
[32] = molecular target: pErk1/2-BSA 2.7x peptide-protein conjugate (human; bovine); assay: RPA, 8 point dilution series of the peptide standard in buffer, assay 2
[33] = molecular target: ERK1 (p42) active (phospho), human, Active Motif 31 152 (human) (UniProt P27361); assay: RPA, competition: +free pErk1/2 peptide 100 nM
[34] = molecular target: ERK1 (p44) active (GST tagged), human, Invitrogen PV 3311 (human) (UniProt P27361); assay: RPA, competition: +free pErk1/2 peptide 100 nM
[35] = molecular target: ERK2 (p42), human, Biosource PHO 0104 (human) (UniProt P28482); assay: RPA, competition: +free pErk1/2 peptide 100 nM
[36] = molecular target: Histone H3-BSA 2.7x peptide-protein conjugate (bovine); assay: RPA, competition: +free pErk1/2 peptide 100 nM

Erk1-BSA 2.7x peptide-protein conjugate (human; bovine), sequence (peptide, as listed by the source limits assumed, chain 1 of 2): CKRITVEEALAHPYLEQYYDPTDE
Erk1-BSA 2.7x peptide-protein conjugate (human; bovine), sequence (P02769 25-607 limits assumed, chain 2 of 2): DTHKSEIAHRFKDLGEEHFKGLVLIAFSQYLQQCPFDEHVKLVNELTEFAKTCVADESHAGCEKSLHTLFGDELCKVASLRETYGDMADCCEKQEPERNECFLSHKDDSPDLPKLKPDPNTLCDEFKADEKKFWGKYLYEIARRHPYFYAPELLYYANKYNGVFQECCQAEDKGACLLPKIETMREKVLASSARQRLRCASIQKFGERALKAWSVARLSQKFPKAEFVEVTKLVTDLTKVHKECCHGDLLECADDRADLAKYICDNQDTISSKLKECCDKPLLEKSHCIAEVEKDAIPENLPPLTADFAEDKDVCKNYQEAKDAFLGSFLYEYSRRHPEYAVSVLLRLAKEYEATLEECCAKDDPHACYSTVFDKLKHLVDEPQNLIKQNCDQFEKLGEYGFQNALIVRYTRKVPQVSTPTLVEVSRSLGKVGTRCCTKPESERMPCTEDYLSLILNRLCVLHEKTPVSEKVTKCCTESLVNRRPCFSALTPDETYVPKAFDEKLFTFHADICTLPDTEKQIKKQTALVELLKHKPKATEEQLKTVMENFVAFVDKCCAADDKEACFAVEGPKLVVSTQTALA
UniProt P06400, sequence (P06400 whole entry): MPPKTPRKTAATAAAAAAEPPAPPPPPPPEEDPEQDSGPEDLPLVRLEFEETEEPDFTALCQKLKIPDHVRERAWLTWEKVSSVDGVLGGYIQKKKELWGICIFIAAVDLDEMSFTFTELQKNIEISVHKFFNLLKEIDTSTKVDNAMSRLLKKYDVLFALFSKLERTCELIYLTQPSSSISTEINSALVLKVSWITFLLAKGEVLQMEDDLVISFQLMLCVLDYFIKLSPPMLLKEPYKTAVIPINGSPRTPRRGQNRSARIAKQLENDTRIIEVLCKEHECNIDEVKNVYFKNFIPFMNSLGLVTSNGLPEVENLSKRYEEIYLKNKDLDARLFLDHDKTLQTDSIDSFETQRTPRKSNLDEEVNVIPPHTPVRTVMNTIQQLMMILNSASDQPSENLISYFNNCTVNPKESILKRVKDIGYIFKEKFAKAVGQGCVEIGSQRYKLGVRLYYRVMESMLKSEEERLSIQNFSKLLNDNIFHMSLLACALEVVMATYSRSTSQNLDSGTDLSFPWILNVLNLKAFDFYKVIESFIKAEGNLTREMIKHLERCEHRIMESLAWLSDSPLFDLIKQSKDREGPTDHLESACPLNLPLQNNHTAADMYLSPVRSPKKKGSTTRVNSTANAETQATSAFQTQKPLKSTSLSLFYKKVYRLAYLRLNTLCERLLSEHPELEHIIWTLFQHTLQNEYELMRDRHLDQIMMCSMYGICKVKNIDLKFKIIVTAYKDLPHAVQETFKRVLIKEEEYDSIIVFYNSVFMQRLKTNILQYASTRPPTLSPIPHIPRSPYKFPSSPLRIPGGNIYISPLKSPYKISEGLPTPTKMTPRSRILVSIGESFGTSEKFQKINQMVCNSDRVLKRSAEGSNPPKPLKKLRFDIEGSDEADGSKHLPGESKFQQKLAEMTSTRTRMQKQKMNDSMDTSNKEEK
Histone H3-BSA 2.7x peptide-protein conjugate (bovine), sequence (P02769 25-607 limits assumed): as the sequence (P02769 25-607 limits assumed, chain 2 of 2) above
pErk1/2-BSA 2.7x peptide-protein conjugate (human; bovine), sequence (P02769 25-607 limits assumed): as the sequence (P02769 25-607 limits assumed, chain 2 of 2) above
UniProt P28482, sequence (P28482 2-360 limits assumed): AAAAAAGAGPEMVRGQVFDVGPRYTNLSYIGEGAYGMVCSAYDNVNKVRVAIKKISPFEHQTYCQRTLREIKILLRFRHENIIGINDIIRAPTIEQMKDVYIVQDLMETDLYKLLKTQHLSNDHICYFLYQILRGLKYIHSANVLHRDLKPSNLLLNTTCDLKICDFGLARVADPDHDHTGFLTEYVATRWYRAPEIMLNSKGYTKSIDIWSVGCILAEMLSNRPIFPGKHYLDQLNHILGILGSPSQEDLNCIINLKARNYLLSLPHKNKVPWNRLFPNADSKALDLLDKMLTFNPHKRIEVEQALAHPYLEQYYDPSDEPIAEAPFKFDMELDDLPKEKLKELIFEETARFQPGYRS
pRb-BSA 1x peptide-protein conjugate (bovine), sequence (P02769 25-607 limits assumed): as the sequence (P02769 25-607 limits assumed, chain 2 of 2) above

Histone H3 antibody, Abcam ab1791
maximum standard curve signal [1]: < 0.01 RFI
maximum standard curve signal [2]: < 0.01 RFI
maximum standard curve signal [3]: < 0.01 RFI
maximum standard curve signal [4]: < 0.01 RFI
maximum standard curve signal [5]: < 0.01 RFI
maximum standard curve signal [6]: < 0.01 RFI
maximum standard curve signal [7]: 0.3 RFI
maximum standard curve signal [8]: 7.04 RFI
maximum standard curve signal [9]: 4.28 RFI
maximum standard curve signal [10]: < 0.01 RFI
maximum standard curve signal [11]: < 0.01 RFI
maximum standard curve signal [12]: < 0.01 RFI
maximum standard curve signal [13]: < 0.01 RFI
maximum standard curve signal [14]: < 0.01 RFI
maximum standard curve signal [15]: < 0.01 RFI
maximum standard curve signal [16]: < 0.01 RFI
maximum standard curve signal [17]: 0.04 RFI
maximum standard curve signal [18]: < 0.01 RFI
maximum standard curve signal [19]: < 0.01 RFI

p44/42 MAPK (Erk1/2) antibody, Biosource 44-654G
maximum standard curve signal [20]: 0.01 RFI
maximum standard curve signal [21]: 0.02 RFI
maximum standard curve signal [22]: 0.02 RFI
maximum standard curve signal [23]: < 0.01 RFI
maximum standard curve signal [24]: 0.01 RFI
maximum standard curve signal [25]: 0.14 RFI
maximum standard curve signal [26]: 0.01 RFI
maximum standard curve signal [27]: 0.01 RFI
maximum standard curve signal [28]: 0.02 RFI
maximum standard curve signal [29]: 0.01 RFI
maximum standard curve signal [30]: 0.01 RFI
maximum standard curve signal [31]: 0.01 RFI
mean signal (standard curve) [32]: 0.008 RFI

p44/42 MAPK phospho (pERK1/2) Thr202/Tyr204 antibody, Cell Signaling Technology #9101
maximum standard curve signal [33]: 0.01 RFI
maximum standard curve signal [34]: 0.01 RFI
maximum standard curve signal [35]: 0.01 RFI
maximum standard curve signal [36]: 0.1 RFI
